Data as given in patent US20170183420.

How the values were obtained:
Assay in all cases: cell_activity
[1] = test system: ZFN 20186 (CTLA-4) (synthetic); conditions: pair 20186/20185, Cel-I, K562
[2] = test system: ZFN 20185 (CTLA-4) (synthetic); conditions: pair 20186/20185, Cel-I, K562
[3] = test system: ZFN 20190 (CTLA-4) (synthetic); conditions: pair 20190/20189, Cel-I, K562
TALEN 101620 (synthetic) = conditions: pair 101623/101620, K562; 10.6 with 101622, 0 with 101621
TALEN 101624 (synthetic) = conditions: pair 101625/101624, K562
[4] = test system: ZFN 25029 (PD1) (synthetic); conditions: pair 12942/25029, Cel-I, K562; also active in PBMC (FIG. 2)
[5] = test system: ZFN 12942 (PD1) (synthetic); conditions: pair 12942/25029, Cel-I, K562; also active in PBMC (FIG. 2)
TALEN 101632 (synthetic) = conditions: pair 101633/101632, K562
TALEN 101640 (synthetic) = conditions: pair 101641/101640, K562
TALEN 101633 (synthetic) = conditions: pair 101633/101632, K562
TALEN 101641 (synthetic) = conditions: pair 101641/101640, K562; RVD 16 printed ND
TALEN 101626 (synthetic) = conditions: pair 101627/101626, K562
TALEN 101621 (synthetic) = conditions: pair 101621/101618, K562; 18.1 with 101619, 0 with 101620
TALEN 101627 (synthetic) = conditions: pair 101627/101626, K562
TALEN 101618 (synthetic) = conditions: pair 101621/101618, K562; 14.7 with 101622, 6.8 with 101623
[6] = test system: ZFN 20189 (CTLA-4) (synthetic); conditions: pair 20190/20189, Cel-I, K562

Question: How did the activity [1] turn out when “ACAGTGCTTCGGCAGGCTGACAGCCAGG (double strand) [CTLA-4 site 20186]” was run?
Answer: 3.3 % indels

Question: Which activity [2] does the source give for “ACCCGGACCTCAGTGGCTTTGCCTGGAG (double strand) [CTLA-4 site 20185]” here?
Answer: 3.3 % indels

Question: “ACTACCTGGGCATAGGCAACGGAACCCA (double strand) [CTLA-4 site 20190]” was tested. Which activity [3] did it give?
Answer: 1.8 % indels

Question: Which results are given for “ATGCAGATCCCACAGGCGC (double strand) [PD1 site 101620/101624]”?
Answer: activity (TALEN 101620 (synthetic)): 11.6 % NHEJ; activity (TALEN 101624 (synthetic)): 10.1 % NHEJ

Question: Which activity [4] does the source give for “CAGTCGTCTGGGCGGTGCT (double strand) [PD1 site 25029]” here?
Answer: 14.7 % NHEJ

Question: For “CCAGGGCGCCTGTGGGATCTGCATGCCT (double strand) [PD1 site 12942]”, which activity [5] is on record?
Answer: 14.7 % NHEJ

Question: Which results are given for “CTACCTCTGTGGGGCCATCTC (double strand) [PD1 site 101632/101640]”?
Answer: activity (TALEN 101632 (synthetic)): 14.7 % NHEJ; activity (TALEN 101640 (synthetic)): 23 % NHEJ

Question: With “CTCTCTTTGATCTGCGCCTTG (double strand) [PD1 site 101633/101641]” as the sequence, how does the activity (TALEN 101633 (synthetic)) read?
Answer: 14.7 % NHEJ

Question: What about the activity (TALEN 101641 (synthetic)) of the same sequence?
Answer: 23 % NHEJ

Question: Which activity (TALEN 101626 (synthetic)) does the source give for “CTTCTCCCCAGCCCTGCTCGT (double strand) [PD1 site 101626]” here?
Answer: 12.5 % NHEJ

Question: For “GTAGCACCGCCCAGACGACTG (double strand) [PD1 site 101621]”, which activity (TALEN 101621 (synthetic)) is on record?
Answer: 23.5 % NHEJ

Question: How did the activity (TALEN 101627 (synthetic)) turn out when “GTGAAGGTGGCGTTGTCCCCT (double strand) [PD1 site 101627]” was run?
Answer: 12.5 % NHEJ

Question: For “GTGCTCCAGGCATGCAGATCC (double strand) [PD1 site 101618]”, which activity (TALEN 101618 (synthetic)) is on record?
Answer: 23.5 % NHEJ

Question: For “TGGCGGTGGGTACATGAGCTCCACCTTG (double strand) [CTLA-4 site 20189]”, which activity [6] is on record?
Answer: 1.8 % indels
